Measurements: publication doi:10.1101/2022.01.31.478542

Tests used:
turbidity = settings: other: turbidity (light scattering at 340 nm) of cell-free assembly
P04590 = experiment: turbidity; settings: other: turbidity (light scattering at 340 nm) of cell-free assembly

| Substance | fold lower turbidity (A340 nm) at 120 min than WT (turbidity) | normalized A340 nm (turbidity) (turbidity) | further results |
| --- | --- | --- | --- |
| HIV-2 CA-NC protein (Gag amino acids 136-431), CA A41D mutant | 25-fold (A41D) lower than that of WT |  | normalized A340 nm (turbidity), whole time course (turbidity): low turbidity readings (i.e., < 0.36) |
| HIV-2 CA-NC protein (Gag amino acids 136-431), CA G38M mutant | 7.0-fold (i.e., G38M, N127E, I152A) | 0.34 |  |
| HIV-2 CA-NC protein (Gag amino acids 136-431), CA I152A mutant | 7.0-fold (i.e., G38M, N127E, I152A) | 0.65 |  |
| HIV-2 CA-NC protein (Gag amino acids 136-431), CA L19A mutant |  | 1.77 |  |
| HIV-2 CA-NC protein (Gag amino acids 136-431), CA N127E mutant | 7.0-fold (i.e., G38M, N127E, I152A) |  |  |
| HIV-2 CA-NC protein (Gag amino acids 136-431), wild type |  |  | normalized A340 nm (turbidity), peak at 20 min (P04590): peaked at 20 min (i.e., 1.27); normalized A340 nm (turbidity), stable value after the peak (P04590): remained stable (i.e., 0.56) |
